± gives the uncertainty stated by the source.

The results in this text go back to the Human Domainome abundance scans (Beltran et al. 2025).

B1: Ankyrin-1, residues 1405 to 1484; numbered along this chain, P16157 (parent)
chain: MKMAVISEHLGLSWAELARELQFSVEDINRIRVENPNSLLEQSVALLNLWVIREGQNANMENLYTALQSIDRGEIVNMLE

The variants in the data set derive from B1. The data set can be described thus: abundance fitness (aPCA) (normalised: wild type 0, dead -1); higher = more abundant; growth selection in yeast, the domain comes from the species named. The conditions noted are these: Homo sapiens.
For the variant MKMAVISEHLGLSWAELARELQFSVEDINRIRVENPNSLLEQSVALLNLWVIREGQNANMENIYTALQSIDRGEIVNMLE [L63I], the abundance fitness amounted to 0.037 ± 0.2.
Then MKMAVISEHLGLSWAELARELQFSVEDINRIRVENPNSLLEQSVALLNLWVIREGQNANMENDYTALQSIDRGEIVNMLE [L63D], with -0.763 ± 0.38; and MKMAVISEHLGLSWAELARELQFSVEDINRIRVENPNSLLEQSVALLNLWVIREGQNANMENPYTALQSIDRGEIVNMLE [L63P], with -0.805 ± 0.2.
Turning to MKMAVISEHLGLSWAELARELQFSVEDINRIRVENPNSLLEQSVALLNLWVIREGQNANMENMYTALQSIDRGEIVNMLE [L63M], the abundance fitness is -0.027 ± 0.087.
Consider MKMAVISEHLGLSWAELARELQFSVEDINRIRVENPNSLLEQSVALLNLWVIREGQNANMENVYTALQSIDRGEIVNMLE [L63V], for which the abundance fitness is -0.136 ± 0.042.
Consider MKMAVISEHLGLSWAELARELQFSVEDINRIRVENPNSLLEQSVALLNLWVIREGQNANMENRYTALQSIDRGEIVNMLE [L63R], for which the abundance fitness is -0.95 ± 0.18.
Next, MKMAVISEHLGLSWAELARELQFSVEDINRIRVENPNSLLEQSVALLNLWVIREGQNANMENFYTALQSIDRGEIVNMLE [L63F]: -0.632 ± 0.3; MKMAVISEHLGLSWAELARELQFSVEDINRIRVENPNSLLEQSVALLNLWVIREGQNANMENQYTALQSIDRGEIVNMLE [L63Q]: -0.075 ± 0.23; MKMAVISEHLGLSWAELARELQFSVEDINRIRVENPNSLLEQSVALLNLWVIREGQNANMENSYTALQSIDRGEIVNMLE [L63S]: -0.637 ± 0.18.
Consider MKMAVISEHLGLSWAELARELQFSVEDINRIRVENPNSLLEQSVALLNLWVIREGQNANMENNYTALQSIDRGEIVNMLE [L63N], for which the abundance fitness is -0.806 ± 0.36.
Next, MKMAVISEHLGLSWAELARELQFSVEDINRIRVENPNSLLEQSVALLNLWVIREGQNANMENTYTALQSIDRGEIVNMLE [L63T]: -0.493 ± 0.15; MKMAVISEHLGLSWAELARELQFSVEDINRIRVENPNSLLEQSVALLNLWVIREGQNANMENLYDALQSIDRGEIVNMLE [T65D]: 0.009 ± 0.065; MKMAVISEHLGLSWAELARELQFSVEDINRIRVENPNSLLEQSVALLNLWVIREGQNANMENLYAALQSIDRGEIVNMLE [T65A]: -0.029 ± 0.052.
Then MKMAVISEHLGLSWAELARELQFSVEDINRIRVENPNSLLEQSVALLNLWVIREGQNANMENLYFALQSIDRGEIVNMLE [T65F], with -0.095 ± 0.083.
Then MKMAVISEHLGLSWAELARELQFSVEDINRIRVENPNSLLEQSVALLNLWVIREGQNANMENLYCALQSIDRGEIVNMLE [T65C], with -0.002 ± 0.087.
Take MKMAVISEHLGLSWAELARELQFSVEDINRIRVENPNSLLEQSVALLNLWVIREGQNANMENLYEALQSIDRGEIVNMLE [T65E]: the abundance fitness came out at 0.015 ± 0.074.
Then MKMAVISEHLGLSWAELARELQFSVEDINRIRVENPNSLLEQSVALLNLWVIREGQNANMENLYGALQSIDRGEIVNMLE [T65G], with -0.045 ± 0.043; and MKMAVISEHLGLSWAELARELQFSVEDINRIRVENPNSLLEQSVALLNLWVIREGQNANMENLYHALQSIDRGEIVNMLE [T65H], with -0.05 ± 0.1.
As for MKMAVISEHLGLSWAELARELQFSVEDINRIRVENPNSLLEQSVALLNLWVIREGQNANMDNLYTALQSIDRGEIVNMLE [E61D], the abundance fitness was -0.1 ± 0.28.
For the variant MKMAVISEHLGLSWAELARELQFSVEDINRIRVENPNSLLEQSVALLNLWVIREGQNANMRNLYTALQSIDRGEIVNMLE [E61R], the abundance fitness was -0.316 ± 0.16.
Consider MKMAVISEHLGLSWAELARELQFSVEDINRIRVENPNSLLEQSVALLNLWVIREGQNANMVNLYTALQSIDRGEIVNMLE [E61V], for which the abundance fitness is -0.523 ± 0.5.
Next, MKMAVISEHLGLSWAELARELQFSVEDINRIRVENPNSLLEQSVALLNLWVIREGQNANMQNLYTALQSIDRGEIVNMLE [E61Q]: 0.459 ± 0.34; MKMAVISEHLGLSWAELARELQFSVEDINRIRVENPNSLLEQSVALLNLWVIREGQNANMGNLYTALQSIDRGEIVNMLE [E61G]: -0.414 ± 0.25.
Then MKMAVISEHLGLSWAELARELQFSVEDINRIRVENPNSLLEQSVALLNLWVIREGQNANMANLYTALQSIDRGEIVNMLE [E61A], with 0.165 ± 0.21.
On to MKMAVISEHLGLSWAELARELQFSVEDINRIRVENPNSLLEQSVALLNLWVIREGQNANMSNLYTALQSIDRGEIVNMLE [E61S], for which the abundance fitness is -0.284 ± 0.16.
Then MKMAVISEHLGLSWAELARELQFSVEDINRIRVENPNSLLEQSVALLNLWVIREGQNANNENLYTALQSIDRGEIVNMLE [M60N], with -0.723 ± 0.47; and MKMAVISEHLGLSWAELARELQFSVEDINRIRVENPNSLLEQSVALLNLWVIREGQNANKENLYTALQSIDRGEIVNMLE [M60K], with -0.534 ± 0.35.
As to MKMAVISEHLGLSWAELARELQFSVEDINRIRVENPNSLLEQSVALLNLWVIREGQNANVENLYTALQSIDRGEIVNMLE [M60V], the abundance fitness was 0.117 ± 0.12.
Then MKMAVISEHLGLSWAELARELQFSVEDINRIRVENPNSLLEQSVALLNLWVIREGQNANWENLYTALQSIDRGEIVNMLE [M60W], with 0.055 ± 0.18.
Next, MKMAVISEHLGLSWAELARELQFSVEDINRIRVENPNSLLEQSVALLNLWVIREGQNANSENLYTALQSIDRGEIVNMLE [M60S]: -0.28 ± 0.14; MKMAVISEHLGLSWAELARELQFSVEDINRIRVENPNSLLEQSVALLNLWVIREGQNANGENLYTALQSIDRGEIVNMLE [M60G]: -0.813 ± 0.2; MKMAVISEHLGLSWAELARELQFSVEDINRIRVENPNSLLEQSVALLNLWVIREGQNANTENLYTALQSIDRGEIVNMLE [M60T]: -0.286 ± 0.19.
Take MKMAVISEHLGLSWAELARELQFSVEDINRIRVENPNSLLEQSVALLNLWVIREGQNANRENLYTALQSIDRGEIVNMLE [M60R]: the abundance fitness was -0.704 ± 0.15.
On to MKMAVISEHLGLSWAELARELQFSVEDINRIRVENPNSLLEQSVALLNLWVIREGQNANHENLYTALQSIDRGEIVNMLE [M60H], for which the abundance fitness came to 0.243 ± 0.24.
MKMAVISEHLGLSWAELARELQFSVEDINRIRVENPNSLLEQSVALLNLWVIREGQNANPENLYTALQSIDRGEIVNMLE [M60P]: the abundance fitness is -0.207 ± 0.18.
